Five molecules from article doi:10.1101/2025.08.11.669711, “Site-Specific Nanobody Inhibitors of the Proteasomal Deubiquitinase UCH37” (bioRxiv, 2025) can be followed below.

Assay [1] addresses T1, UCH37 (Homo sapiens, strain).
T1 construct: from His8-MBP-TEV-UCH37 in pVP16 (DNASU); The purification of free UCH37 is not described; in the complexes with RPN13 the His-MBP tag was removed with TEV protease; also called UCHL5; free UCH37; source: E. coli, purified (His-MBP-TEV-UCH37 construct; individually purified for the crystal)
T1 chain: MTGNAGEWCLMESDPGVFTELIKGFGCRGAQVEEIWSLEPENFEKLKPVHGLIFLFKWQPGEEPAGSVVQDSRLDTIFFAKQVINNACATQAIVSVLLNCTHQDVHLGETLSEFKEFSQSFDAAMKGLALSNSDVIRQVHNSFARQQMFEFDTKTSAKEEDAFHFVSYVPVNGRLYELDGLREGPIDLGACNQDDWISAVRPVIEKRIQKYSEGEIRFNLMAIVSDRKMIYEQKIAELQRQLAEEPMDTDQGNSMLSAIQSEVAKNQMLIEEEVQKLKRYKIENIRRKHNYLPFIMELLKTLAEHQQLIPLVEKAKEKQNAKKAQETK
As to the kind of experiment: not stated; recombinant purified Nb-v1 with free UCH37 (Supplementary Figure 2b). To be noted: both partners purified.

For assay [2], the target named is T2, Ub-UCH37•RPN13^DEUBAD (Homo sapiens, strain, active site cysteine covalently linked to Ub propargylamine (Ub-PA) | C-terminal propargylamine after residue 75, linked to the active site cysteine of UCH37; biotin on the Avi tag in the …).
T2 construct: from His8-MBP-TEV-UCH37 in pVP16 (DNASU); RPN13 (ADRM1) DEUBAD domain, aa 253-407, cloned from His10-RPN13 in pET19b; ubiquitin residues 1-75 (Ub_(1-75)-propargylamine, made from Avi-Ub_(1-75)-intein); In the pull-down it was offered as a mixture with unconjugated UCH37•RPN13^DEUBAD; also called Ub conjugated UCH37•RPN13^DEUBAD; UCH37•RPN13^DEUBAD -Ub-PA; source: UCH37•RPN13^DEUBAD (E. coli, …)
Put plainly: native MS; 150 mM ammonium acetate pH 6.8; UCH37•RPN13^DEUBAD variants premixed with Nb-ncS1 in equimolar ratio, 1 hour on ice; final 10 uM; nanospray, Synapt G2. The note with it: both partners purified.

For assay [3], the target named is T3, UCH37•RPN13^DEUBAD (Homo sapiens, strain).
T3 construct: from His8-MBP-TEV-UCH37 in pVP16 (DNASU); RPN13 (ADRM1) DEUBAD domain, aa 253-407, cloned from His10-RPN13 in pET19b; source: E. coli BL21(DE3) pLysS, co-purified (Ni-NTA, TEV, GST resin, 3C, Superdex 200); not shown: His8, N-terminal, cleaved; MBP, N-terminal, cleaved; GST, N-terminal, cleaved
T3 chain 1: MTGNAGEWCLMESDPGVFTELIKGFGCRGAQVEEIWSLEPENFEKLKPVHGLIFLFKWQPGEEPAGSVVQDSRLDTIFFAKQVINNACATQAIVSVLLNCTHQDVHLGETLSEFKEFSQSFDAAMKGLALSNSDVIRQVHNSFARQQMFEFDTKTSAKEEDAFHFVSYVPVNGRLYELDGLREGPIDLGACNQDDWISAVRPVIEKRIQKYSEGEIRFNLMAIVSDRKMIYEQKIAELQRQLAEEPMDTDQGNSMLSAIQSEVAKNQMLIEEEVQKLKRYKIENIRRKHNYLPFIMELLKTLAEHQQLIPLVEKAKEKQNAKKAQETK
T3 chain 2: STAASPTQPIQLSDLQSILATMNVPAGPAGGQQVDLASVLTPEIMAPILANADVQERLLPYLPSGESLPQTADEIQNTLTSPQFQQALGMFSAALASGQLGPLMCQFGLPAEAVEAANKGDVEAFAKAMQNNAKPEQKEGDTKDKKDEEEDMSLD
The description is as above. The note with it: both partners purified.

Assay [4] has as its target T1, UCH37. As to the kind of experiment: SPR; BIACORE T200, His-Nb immobilised on NTA chip (about 30 RU); purified UCH37 injected, single cycle kinetics; 50 mM HEPES pH 7.5, 50 mM NaCl, 50 μM EDTA, 0.005% TWEEN 20; 25 °C; 1:1 model. The note with it: both partners purified.
The target of assay [5] is T4, UCH37•RPN13 (Homo sapiens, strain).
T4 construct: from His8-MBP-TEV-UCH37 in pVP16 (DNASU); RPN13 (ADRM1), His10-RPN13 in pET19b; source: E. coli BL21(DE3) pLysS, co-purified (amylose, TEV, Ni-NTA, Superdex 200); not shown: His8, N-terminal, cleaved; MBP, N-terminal, cleaved
T4 chain 1: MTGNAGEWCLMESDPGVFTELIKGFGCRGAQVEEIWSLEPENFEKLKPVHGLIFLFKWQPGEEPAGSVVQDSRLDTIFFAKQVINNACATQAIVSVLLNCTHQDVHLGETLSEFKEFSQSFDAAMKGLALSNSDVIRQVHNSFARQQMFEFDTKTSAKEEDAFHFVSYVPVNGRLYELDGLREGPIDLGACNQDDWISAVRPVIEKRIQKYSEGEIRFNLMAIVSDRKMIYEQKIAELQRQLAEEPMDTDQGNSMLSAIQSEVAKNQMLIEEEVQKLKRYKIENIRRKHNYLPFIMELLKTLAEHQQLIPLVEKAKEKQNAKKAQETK
T4 chain 2: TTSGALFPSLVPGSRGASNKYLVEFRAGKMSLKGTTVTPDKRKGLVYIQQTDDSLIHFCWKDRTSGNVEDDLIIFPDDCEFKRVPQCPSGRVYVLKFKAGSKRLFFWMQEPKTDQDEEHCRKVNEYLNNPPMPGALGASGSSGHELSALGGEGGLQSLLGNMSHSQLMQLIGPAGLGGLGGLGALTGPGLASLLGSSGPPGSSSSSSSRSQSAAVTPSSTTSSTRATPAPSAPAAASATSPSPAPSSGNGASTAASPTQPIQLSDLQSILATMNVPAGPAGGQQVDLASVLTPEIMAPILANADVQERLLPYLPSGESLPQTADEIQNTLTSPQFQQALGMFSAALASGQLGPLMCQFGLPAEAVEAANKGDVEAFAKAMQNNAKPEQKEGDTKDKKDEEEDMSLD
Put plainly: MST; nanobody labelled with fluorescein isothiocyanate at 20 nM (Nb-ncS1) or 50 nM (Nb-cS1); UCH37•RPN13 titrated 4 μM to 0.12 nM or 46 μM to 2.8 nM; 50 mM Tris pH 7.4, 150 mM NaCl, 10 mM MgCl2, 0.05% tween-20; room temperature; 1:1 Kd fit; duplicates. To be noted: both partners purified.

Assay [6] concerns the target T3, UCH37•RPN13^DEUBAD. As to the kind of experiment: SEC-MALS; nanobodies incubated with UCH37•RPN13^DEUBAD on ice 30 min; TSKgel G3000SWXL; 50 mM sodium phosphate pH 6.5, 150 mM sodium chloride, 10% isopropanol; room temperature. The note with it: both partners purified. (In gel filtration, larger molecules generally elute earlier.)
Assay [7] addresses translation elongation factor EEF2 (Homo sapiens, UniProt P13639). Put plainly: affinity purification with mass spectrometry; as a15, but UCH37KO HEK293FT cells. To be noted: partners not purified.
Assay [8] addresses T5, HSP70 chaperone HSPA1B (Homo sapiens, UniProt P0DMV9).
T5 construct: endogenous HSPA1B; source: endogenous, UCH37KO HEK293FT lysate
The description is as above. The note with it: partners not purified.

For assay [9], the target named is T6, UCH37 (endogenous) (Homo sapiens (HEK293FT, endogenous)).
T6 construct: endogenous UCH37 (UCHL5) of HEK293FT cells; also called UCHL5
T6 chain: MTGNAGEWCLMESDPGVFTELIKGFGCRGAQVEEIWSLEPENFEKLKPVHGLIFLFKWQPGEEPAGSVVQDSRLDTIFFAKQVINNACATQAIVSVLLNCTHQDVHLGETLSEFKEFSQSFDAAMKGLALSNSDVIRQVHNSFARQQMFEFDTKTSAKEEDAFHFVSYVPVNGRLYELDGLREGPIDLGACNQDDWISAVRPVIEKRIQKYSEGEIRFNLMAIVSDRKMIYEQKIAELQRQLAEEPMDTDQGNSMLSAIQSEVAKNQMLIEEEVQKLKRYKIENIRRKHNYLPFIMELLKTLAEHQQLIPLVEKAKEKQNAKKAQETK
As to the kind of experiment: affinity purification with mass spectrometry; WT HEK293FT transfected with HaloTag nanobodies; immunoprecipitation, on-bead trypsin digestion, TMT labelling; compared with Halo-Nb-ctrl. To be noted: partners not purified.

Assay [10] has as its target T6, UCH37 (endogenous). As to the kind of experiment: co-IP; WT HEK293FT transfected with HA-Flag-tagged nanobodies; anti-FLAG resin 3 hours 4 °C; lysis in 50 mM HEPES pH 7.5, 50 mM NaCl, 5 mM MgCl2, 2 mM ATP, 1 mM DTT, 10% glycerol; blots of UCH37 and proteasome subunits. The note with it: partners not purified.

T5 sequence (P0DMV9 whole entry): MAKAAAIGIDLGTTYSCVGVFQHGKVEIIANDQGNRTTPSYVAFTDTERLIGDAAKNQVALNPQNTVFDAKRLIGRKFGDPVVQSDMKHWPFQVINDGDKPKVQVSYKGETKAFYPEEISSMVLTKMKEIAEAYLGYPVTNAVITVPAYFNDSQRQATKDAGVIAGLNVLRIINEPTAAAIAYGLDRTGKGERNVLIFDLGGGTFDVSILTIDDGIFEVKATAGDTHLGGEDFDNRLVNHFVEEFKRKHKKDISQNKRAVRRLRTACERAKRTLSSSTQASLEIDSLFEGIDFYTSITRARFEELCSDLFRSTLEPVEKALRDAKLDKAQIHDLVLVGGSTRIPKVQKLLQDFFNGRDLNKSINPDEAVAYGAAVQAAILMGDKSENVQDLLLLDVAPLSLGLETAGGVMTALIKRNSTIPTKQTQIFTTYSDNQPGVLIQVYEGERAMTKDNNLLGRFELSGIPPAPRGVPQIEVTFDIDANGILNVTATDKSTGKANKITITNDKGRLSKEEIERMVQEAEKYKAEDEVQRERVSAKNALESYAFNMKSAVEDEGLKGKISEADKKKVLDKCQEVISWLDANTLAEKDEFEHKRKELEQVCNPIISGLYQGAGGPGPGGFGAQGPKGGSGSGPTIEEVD

B1: Nb-v1 (recombinant) (VHH)
VHH: QVQLQESGGGLVQAGGSLRLSCAASGYIFRSYRMGWYRQAPGKERELVAAIGLGGNTYYADSVKGRFTISRDNAKNTVYLQMNSLKPEDTAVYYCAALHGKPPAFSPFAYWGQGTQVTVSS
notes: most enriched clone of the first yeast display selection, parent of Nb-ncS1 (Nb-ncS1 = Nb-v1 with Q1R, L80Q, H99Y, A109P); His-tagged nanobodies were made in E. coli BL21 (DE3) by the general method; source: recombinant production and purification
In general, Kd refers to the free concentration of one partner at which half of the binding sites on the other are occupied at equilibrium, for simple one-to-one binding. Consider B1, for which the Kd in [1] was found to be 0.3 nM.

B2: Nb-ncS1 (His-tagged) (VHH)
VHH: RVQLQESGGGLVQAGGSLRLSCAASGYIFRSYRMGWYRQAPGKERELVAAIGLGGNTYYADSVKGRFTISRDNAKNTVYQQMNSLKPEDTAVYYCAALYGKPPAFSPFPYWGQGTQVTVSS
notes: as the VHH of Nb-v1 with the four stated changes; Cloned into pET28b; Labelled with fluorescein isothiocyanate for MST; also called 6xHis-tagged Nb-ncS1; His-Nb; source: E. coli BL21 (DE3), purified (Ni-NTA, Superdex 75)
As a reminder, the stoichiometry N is the number of molecules, sites or subunits per partner or assembly. B2: the “stoichiometry N” value in [2] and in assay [3] was 1 throughout. In [4], this molecule yielded a Kd of 0.125 nM.

B3: Nb-cS1 (His-tagged) (VHH)
VHH: QVQLQESGGGLVQAGGSLRLSCAASGYISRPRTMGWYRQAPGKEREFVAIISNGAITNYADSVKGRFTISRDNAKNTVYLQMNSLKPEDTAVYYCAAGRNIWHAYWGQGTQVTVSS
notes: synthetic nanobody from a yeast display library: clone Nb-v2 matured with L47F, T50I, K99R; Cloned into pET28b; Labelled with fluorescein isothiocyanate for MST; also called 6xHis-tagged Nb-cS1; cNb; source: E. coli BL21 (DE3), purified (Ni-NTA, Superdex 75)
In the case of B3, the Kd in [5] worked out at 200 nM. Also, the “stoichiometry N” value in assay [6] was 1.

B4: Halo-Nb-cS1 (expressed in cells) (VHH)
VHH: QVQLQESGGGLVQAGGSLRLSCAASGYISRPRTMGWYRQAPGKEREFVAIISNGAITNYADSVKGRFTISRDNAKNTVYLQMNSLKPEDTAVYYCAAGRNIWHAYWGQGTQVTVSS
notes: as the VHH of m15 (Nb-cS1); The authors suspect that this fusion is misfolded in human cells; also called Halo-tagged Nb-cS1; source: HEK293FT (WT or UCH37KO), transiently transfected, in lysate; not shown: HaloTag, C-terminal, kept
For B4, the binding result in assay [7], in [8] and in [9] was “binds” throughout.

B5: HA-Flag-tagged Nb-cS1 (VHH)
VHH: QVQLQESGGGLVQAGGSLRLSCAASGYISRPRTMGWYRQAPGKEREFVAIISNGAITNYADSVKGRFTISRDNAKNTVYLQMNSLKPEDTAVYYCAAGRNIWHAYWGQGTQVTVSS
notes: as the VHH of m15 (Nb-cS1); source: HEK293FT, transiently transfected (1436 pcDNA3 Flag HA vector), in lysate or in fixed cells
For B5, the binding result in [10] is “binds”.
